B1: human RPB6 (residues 1–24), NTT peptide [human] / human TFIIH p62 PH domain (PH-D) (residues 1–108) [human] (parent complex)
chain 1: MSDNEDNFDGDDFDDVEEDEGLDD
chain 2: MATSSEEVLLIVKKVRQKKQDGALYLMAERIAWAPEGKDRFTISHMYADIKCQKISPEGKAKIQLQLVLHAGDTTNFHFSNESTAVKERDAVKDLLQQLLPKFKRKAN

In this assay the parent is B1. Nature of the assay: ITC. (ITC needs no label: the signal is the heat of the interaction.)
chain 1 V16A: the Kd (commonly the constant that tells how readily two partners part at equilibrium) was 7.14 µM.

In the case of chain 1 S2A, the Kd worked out at 3.65 µM.

Consider chain 1 F8A, for which the Kd stood at 2.85 µM.

As for chain 1 F13A, chain 1 V16A, the Kd was found to be 7.35 µM.

Source of the values: paper PMC8754651 (2021).
